In patent US7588931B2, “High arachidonic acid producing strains of Yarrowia lipolytica” (E. I. du Pont de Nemours and Company, priority 2004, dated 2009):

B1: FBAIN: fructose-bisphosphate aldolase + intron promoter, SEQ ID NO:162 (nucleic acid, listed as Yarrowia lipolytica)
DNA: AAATTGCCCCGGAGAAGACGGCCAGGCCGCCTAGATGACAAATTCAACAACTCACAGCTGACTTTCTGCCATTGCCACTAGGGGGGGGCCTTTTTATATGGCCAAGCCAAGCTCTCCACGTCGGTTGGGCTGCACCCAACAATAAATGGGTAGGGTTGCACCAACAAAGGGATGGGATGGGGGGTAGAAGATACGAGGATAACGGGGCTCAATGGCACAAATAAGAACGAATACTGCCATTAAGACTCGTGATCCAGCGACTGACACCATTGCATCATCTAAGGGCCTCAAAACTACCTCGGAACTGCTGCGCTGATCTGGACACCACAGAGGTTCCGAGCACTTTAGGTTGCACCAAATGTCCCACCAGGTGCAGGCAGAAAACGCTGGAACAGCGTGTACAGTTTGTCTTAACAAAAAGTGAGGGCGCTGAGGTCGAGCAGGGTGGTGTGACTTGTTATAGCCTTTAGAGCTGCGAAAGCGCGTATGGATTTGGCTCATCAGGCCAGATTGAGGGTCTGTGGACACATGTCATGTTAGTGTACTTCAATCGCCCCCTGGATATAGCCCCGACAATAGGCCGTGGCCTCATTTTTTTGCCTTCCGCACATTTCCATTGCTCGGTACCCACACCTTGCTTCTCCTGCACTTGCCAACCTTAATACTGGTTTACATTGACCAACATCTTACAAGCGGGGGGCTTGTCTAGGGTATATATAAACAGTGGCTCTCCCAATCGGTTGCCAGTCTCTTTTTTCCTTTCTTTCCCCACAGATTCGAAATCTAAACTACACATCACACAATGCCTGTTACTGACGTCCTTAAGCGAAAGTCCGGTGTCATCGTCGGCGACGATGTCCGAGCCGTGAGTATCCACGACAAGATCAGTGTCGAGACGACGCGTTTTGTGTAATGACACAATCCGAAAGTCGCTAGCAACACACACTCTCTACACAAACTAACCCAGCTCTCC
modifications: misc_feature: Promoter FBAIN
B2: FBA: Y. lipolytica fructose-bisphosphate aldolase promoter, SEQ ID NO:161 (nucleic acid, listed as Yarrowia lipolytica)
DNA: TAAACAGTGTACGCAGTACTATAGAGGAACAATTGCCCCGGAGAAGACGGCCAGGCCGCCTAGATGACAAATTCAACAACTCACAGCTGACTTTCTGCCATTGCCACTAGGGGGGGCCTTTTTATATGGCCAAGCCAAGCTCTCCACGTCGGTTGGGCTGCACCCAACAATAAATGGGTAGGGTTGCACCAACAAAGGGATGGGATGGGGGGTAGAAGATACGAGGATAACGGGGCTCAATGGCACAAATAAGAACGAATACTGCCATTAAGACTCGTGATCCAGCGACTGACACCATTGCATCATCTAAGGGCCTCAAAACTACCTCGGAACTGCTGCGCTGATCTGGACACCACAGAGGTTCCGAGCACTTTAGGTTGCACCAAATGTCCCACCAGGTGCAGGCAGAAAACGCTGGAACAGCGTGTACAGTTTGTCTTAACAAAAAGTGAGGGCGCTGAGGTCGAGCAGGGTGGTGTGACTTGTTATAGCCTTTAGAGCTGCGAAAGCGCGTATGGATTTGGCTCATCAGGCCAGATTGAGGGTCTGTGGACACATGTCATGTTAGTGTACTTCAATCGCCCCCTGGATATAGCCCCGACAATAGGCCGTGGCCTCATTTTTTTGCCTTCCGCACATTTCCATTGCTCGGTACCCACACCTTGCTTCTCCTGCACTTGCCAACCTTAATACTGGTTTACATTGACCAACATCTTACAAGCGGGGGGCTTGTCTAGGGTATATATAAACAGTGGCTCTCCCAATCGGTTGCCAGTCTCTTTTTTCCTTTCTTTCCCCACAGATTCGAAATCTAAACTACACATCACACAATGCCTGTTACTGACGTCCTTAAGCGAAAGTCCGGTGTCATCGTCGGCGACGATGTCCGAGCCGTGAGTATCCACGACAAGATCAGTGTCGAGACGACGCGTTTTGTGTAATGACACAATCCGAAAGTCGCTAGCAACACACACTCTCTACACAAACTAACCCAGCTCTCC
modifications: misc_feature: Promoter FBA

Experiments:
[1] = tested on: β-glucuronidase (GUS) reporter; assay: Comparative analysis of promoters by fluorometric assay of GUS expression; type: cell-based, Yarrowia lipolytica; conditions: for GUS activity relative to the GPD promoter: ATCC #76982 strains, FIG. 6A
Procedure: GUS activity was also assayed by fluorometric determination of the production of 4-methylumbelliferone (4-MU) from the corresponding substrate β-glucuronide (Jefferson, R. A. Plant Mol. Biol. Reporter 5:387-405 (1987)).
Yarrowia lipolytica ATCC #76982 strains containing plasmids pY5-30, PYZGDG, PYZGMG, pDMW212 and pDMW214 were grown from single colonies in 3 mL MM (as described above) at 30° C. to an OD600˜1.0. Then, the 3 mL cultures were each added to a 500 mL flask containing 50 mL MM and grown in a shaking incubator at 30° C. for about 24 hrs. The cells were collected by centrifugation, resuspended in Promega Cell Lysis Buffer and lysed using the BIO 101 Biopulverizer system (Vista, Calif.). After centrifugation, the supernatants were removed and kept on ice.
Similarly, Y. lipolytica strain Y2034 containing plasmids pY5-30, pYAT-GUS, pYGPAT-GUS and pDMW214 constructs, respectively, were grown from single colonies in 10 mL SD medium at 30° C. for 48 hrs to an OD600˜5.0. Two mL of each culture was collected for GUS activity assays, as described below, while 5 mL of each culture was switched into HGM.
Specifically, cells from the 5 mL aliquot were collected by centrifugation, washed once with 5 mL of HGM and resuspended in HGM. The cultures in HGM were then grown in a shaking incubator at 30° C. for 24 hrs. Two mL of each HGM culture were collected for the GUS activity assay, while the remaining culture was allowed to grow for an additional 96 hrs before collecting an additional 2 mL of each culture for the assay.
Each 2 mL culture sample in SD medium was resuspended in 1 mL of 0.5× cell culture lysis reagent (Promega). Resuspended cells were mixed with 0.6 mL of glass beads (0.5 mm diameter) in a 2.0 mL screw cap tube with a rubber O-ring. The cells were then homogenized in a Biospec mini beadbeater (Bartlesville, Okla.) at the highest setting for 90 sec. The homogenization mixtures were centrifuged for 2 min at 14,000 rpm in an Eppendof centrifuge to remove cell debris and beads. The supernatant was used for GUS assay and protein determination.
For each fluorometric assay, 100 μl of extract was added to […] of GUS assay buffer (2 mM 4-methylumbelliferyl-β-D-glucuronide (“MUG”) in extraction buffer) or 200 μl of extract was added to 800 μl of GUS assay buffer. The mixtures were placed at 37° C. Aliquots of 100 μl were taken at 0, 30 and 60 min time points and added to 900 μl of stop buffer (1 M Na2CO3). Each time point was read using a CytoFluor Series 4000 Fluorescence Multi-Well Plate Reader (PerSeptive Biosystems, Framingham, Mass.) set to an excitation wavelength of 360 nm and an emission wavelength of 455 nm. Total protein concentration of each sample was determined using 10 μl of extract and 200 μl of BioRad Bradford reagent or 20 μl of extract and 980 μl of BioRad Bradford reagent (Bradford, M. M. Anal. Biochem. 72:248-254 (1976)). GUS activity was expressed as nmoles of 4-MU per minute per mg of protein.

[2] = tested on: β-glucuronidase (GUS) reporter; assay: Relative promoter activity rank from comparative GUS reporter studies (histochemical, fluorometric and/or Real Time PCR); type: cell-based, Yarrowia lipolytica; parameters: key: a ‘1’ corresponds to the promoter with lowest activity; a ‘7’ corresponds to the promoter with highest activity; conditions: relative to other promoters
In short: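 GUS activity from each promoter construct was measured by histochemical and/or fluorometric assays and/or Real Time PCR. Promoters were ranked relative to one another, from 1 (lowest activity) to 7 (highest activity).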

Molecule | GUS activity relative to the GPD promoter [1] | GUS activity ([1]; strain Y2034, 24 hr, HGM) | GUS activity ([1]; strain Y2034, 48 hr, SD) | GUS activity ([1]; strain Y2034, 120 hr HGM) | reduction of promoter activity ([1]; switched from SD medium into HGM for 24 hrs) | Activity “Rank” [2]
B1 | about 6.6 times | 30.694 nmoles of 4-MU per minute per mg of protein | 43.333 nmoles of 4-MU per minute per mg of protein | 17.200 nmoles of 4-MU per minute per mg of protein | 30% | 7
B2 | 2.2 times | – | – | – | – | 4
